Article PMC4682845 (PLoS ONE, 2015)

Experiments:
AUC = target: the molecule itself; experiment: AUC
[1] = target: […]-para-nitroanilide (TQ6-pNA) peptide substrate; experiment: ITC + other: steady-state kinetics; conditions: both partners purified

B1: SARS-CoV main protease (M^pro), wild type (enzyme)
chain: SGFRKMAFPSGKVEGCMVQVTCGTTTLNGLWLDDTVYCPRHVICTAEDMLNPNYEDLLIRKSNHSFLVQAGNVQLRVIGHSMQNCLLRLKVDTSNPKTPKYKFVRIQPGQTFSVLACYNGSPSGVYQCAMRPNHTIKGSFLNGSCGSVGFNIDYDCVSFCYMHHMELPTGVHAGTDLEGKFYGPFVDRQTAQAAGTDTTITLNVLAWLYAAVINGDRWFLNRFTTTLNDFNLVAMKYNYEPLTQDHVDILGPLSAQTGIAVLDMCAALKELLQNGMNGRTILGSTILEDEFTPFDVVRQCSGVTFQ
Kd (AUC): 700 ± 20 nM | koff [1]: 0.084 s⁻¹ | kon [1]: 2460 M⁻¹ s⁻¹
